# Source: patent US20090208538A1 (ROCKEFELLER UNIVERSITY, published 2009)
# Target: T1, HLA-A*0201 (human)
# T1 construct: also called HLA-A2.1; HLA A2.1
# Assay: iTopia off-rate
row,Binder,t1/2
1,FVYDHVFAE [cdr2 171-179 FVYDHVFAE],5.5
2,LKSSGQGRR [cdr2 136-144 LKSSGQGRR],2.38
3,NIDHLQSQV [cdr2 125-133 NIDHLQSQV],1.3
4,VTMEEEYGL [cdr2 217-225 VTMEEEYGL],6.5
5,TMEEEYGLV [cdr2 218-226 TMEEEYGLV],1.27
6,HLQSQVEEL [cdr2 128-136 HLQSQVEEL],7.7
7,QLAAELGKT [cdr2 29-37 QLAAELGKT],1.4
8,MLQAQLSLE [cdr2 204-212 MLQAQLSLE],5.1
9,KVYEQLDVT [cdr2 82-90 KVYEQLDVT],1.3
10,CLQTNIDHL [cdr2 121-129 CLQTNIDHL],2.4
11,SQVEELKSS [cdr2 131-139 SQVEELKSS],2.42
12,QAQLSLERQ [cdr2 206-214 QAQLSLERQ],3.42
13,LSLTETIEC [cdr2 113-121 LSLTETIEC],0.51

# More lines, now with the values ahead:
row,t1/2,Binder
1,1.9,LASVNPEPV [cdr2 405-413 LASVNPEPV]
2,0.5,ASGWELASV [cdr2 400-408 ASGWELASV]
3,6.3,DSLSHKAVQ [cdr2 372-380 DSLSHKAVQ]
4,1.2,LGATGAYRA [cdr2 237-245 LGATGAYRA]
5,1.38,EMFLTVPES [cdr2 293-301 EMFLTVPES]
6,1.1,TILSSLAGS (Position printed as 313-221) [cdr2 313-221 TILSSLAGS]
7,2.4,LVPDSLYVP [cdr2 274-282 LVPDSLYVP]
8,6.5,AAAKDLTGV [cdr2 384-392 AAAKDLTGV]
9,0.8,SLSHKAVQT [cdr2 373-381 SLSHKAVQT]
10,6.4,GVNAQSEPV [cdr2 391-399 GVNAQSEPV]
11,13.9,SLLEEMFLT [cdr2 289-297 SLLEEMFLT]
12,5.44,QSLLEEMFL [cdr2 288-296 QSLLEEMFL]
13,7,RGISLLHEV [cdr2 341-349 RGISLLHEV]
14,6.1,KLVPDSLYV [cdr2 273-281 KLVPDSLYV]

# Target: T1, HLA-A*0201
# Assay: iTopia net score
row,Binder,iScore
1,FVYDHVFAE [cdr2 171-179 FVYDHVFAE],0.282
2,LKSSGQGRR [cdr2 136-144 LKSSGQGRR],0.176
3,NIDHLQSQV [cdr2 125-133 NIDHLQSQV],0.166
4,VTMEEEYGL [cdr2 217-225 VTMEEEYGL],0.528
5,TMEEEYGLV [cdr2 218-226 TMEEEYGLV],0.166
6,HLQSQVEEL [cdr2 128-136 HLQSQVEEL],0.323
7,QLAAELGKT [cdr2 29-37 QLAAELGKT],0.15
8,MLQAQLSLE [cdr2 204-212 MLQAQLSLE],0.235
9,KVYEQLDVT [cdr2 82-90 KVYEQLDVT],0.139
10,CLQTNIDHL [cdr2 121-129 CLQTNIDHL],0.176
11,SQVEELKSS [cdr2 131-139 SQVEELKSS],0.154
12,QAQLSLERQ [cdr2 206-214 QAQLSLERQ],0.174
13,LSLTETIEC [cdr2 113-121 LSLTETIEC],0.187

# Now from value to binder:
row,iScore,Binder
1,0.244,LASVNPEPV [cdr2 405-413 LASVNPEPV]
2,0.187,ASGWELASV [cdr2 400-408 ASGWELASV]
3,0.262,DSLSHKAVQ [cdr2 372-380 DSLSHKAVQ]
4,0.13,LGATGAYRA [cdr2 237-245 LGATGAYRA]
5,0.15,EMFLTVPES [cdr2 293-301 EMFLTVPES]
6,0.238,TILSSLAGS (Position printed as 313-221) [cdr2 313-221 TILSSLAGS]
7,0.154,LVPDSLYVP [cdr2 274-282 LVPDSLYVP]
8,0.469,AAAKDLTGV [cdr2 384-392 AAAKDLTGV]
9,0.129,SLSHKAVQT [cdr2 373-381 SLSHKAVQT]
10,0.292,GVNAQSEPV [cdr2 391-399 GVNAQSEPV]
11,0.803,SLLEEMFLT [cdr2 289-297 SLLEEMFLT]
12,0.178,QSLLEEMFL [cdr2 288-296 QSLLEEMFL]
13,0.752,RGISLLHEV [cdr2 341-349 RGISLLHEV]
14,0.499,KLVPDSLYV [cdr2 273-281 KLVPDSLYV]

# Target: T1, HLA-A*0201
# Assay: iTopia affinity
row,Binder,ED50 [µM]
1,FVYDHVFAE [cdr2 171-179 FVYDHVFAE],10
2,LKSSGQGRR [cdr2 136-144 LKSSGQGRR],16
3,NIDHLQSQV [cdr2 125-133 NIDHLQSQV],6
4,VTMEEEYGL [cdr2 217-225 VTMEEEYGL],2
5,TMEEEYGLV [cdr2 218-226 TMEEEYGLV],6.3
6,HLQSQVEEL [cdr2 128-136 HLQSQVEEL],10
7,QLAAELGKT [cdr2 29-37 QLAAELGKT],20
8,MLQAQLSLE [cdr2 204-212 MLQAQLSLE],5
9,KVYEQLDVT [cdr2 82-90 KVYEQLDVT],8
10,CLQTNIDHL [cdr2 121-129 CLQTNIDHL],20
11,SQVEELKSS [cdr2 131-139 SQVEELKSS],11
12,QAQLSLERQ [cdr2 206-214 QAQLSLERQ],8.1
13,LSLTETIEC [cdr2 113-121 LSLTETIEC],0.95

# Now from value to binder:
row,ED50 [µM],Binder
1,4,LASVNPEPV [cdr2 405-413 LASVNPEPV]
2,1,ASGWELASV [cdr2 400-408 ASGWELASV]
3,9,DSLSHKAVQ [cdr2 372-380 DSLSHKAVQ]
4,10,LGATGAYRA [cdr2 237-245 LGATGAYRA]
5,17,EMFLTVPES [cdr2 293-301 EMFLTVPES]
6,2,TILSSLAGS (Position printed as 313-221) [cdr2 313-221 TILSSLAGS]
7,10,LVPDSLYVP [cdr2 274-282 LVPDSLYVP]
8,3,AAAKDLTGV [cdr2 384-392 AAAKDLTGV]
9,4,SLSHKAVQT [cdr2 373-381 SLSHKAVQT]
10,10,GVNAQSEPV [cdr2 391-399 GVNAQSEPV]
11,6,SLLEEMFLT [cdr2 289-297 SLLEEMFLT]
12,30,QSLLEEMFL [cdr2 288-296 QSLLEEMFL]
13,1,RGISLLHEV [cdr2 341-349 RGISLLHEV]
14,3,KLVPDSLYV [cdr2 273-281 KLVPDSLYV]

# Target: HLA-A*2402 (human)
# Assay: iTopia off-rate
row,Binder,t1/2
1,EQLQEIEYL [cdr2 58-66 EQLQEIEYL],1.47
2,MYTTNQEQL [cdr2 52-60 MYTTNQEQL],1.46
3,EYLTKQVEL [cdr2 64-72 EYLTKQVEL],1.72

# Results, then the binder that gave them:
row,t1/2,Binder
1,1.6,YKALFKEIF [cdr2 422-430 YKALFKEIF]
2,0.49,PFVNGVEKL [cdr2 266-274 PFVNGVEKL]
3,1.15,VKQRGISLL [cdr2 338-346 VKQRGISLL]
4,1.63,EYKALFKEI [cdr2 421-429 EYKALFKEI]
5,1.11,LFKEIFSCI [cdr2 425-433 LFKEIFSCI]
6,1.25,PFKEPSQSL [cdr2 282-290 PFKEPSQSL]

# Target: HLA-A*2402 (human)
# Assay: iTopia net score
row,Binder,iScore
1,EQLQEIEYL [cdr2 58-66 EQLQEIEYL],0.142
2,MYTTNQEQL [cdr2 52-60 MYTTNQEQL],0.441
3,EYLTKQVEL [cdr2 64-72 EYLTKQVEL],0.444

# Now from value to binder:
row,iScore,Binder
1,0.357,YKALFKEIF [cdr2 422-430 YKALFKEIF]
2,0.218,PFVNGVEKL [cdr2 266-274 PFVNGVEKL]
3,0.172,VKQRGISLL [cdr2 338-346 VKQRGISLL]
4,0.505,EYKALFKEI [cdr2 421-429 EYKALFKEI]
5,0.529,LFKEIFSCI [cdr2 425-433 LFKEIFSCI]
6,0.496,PFKEPSQSL [cdr2 282-290 PFKEPSQSL]

# Target: T1, HLA-A*0201
# Assay: iTopia binding;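 note: each peptide tested for binding to HLA-A2 molecules immobilized on plates, using a commercial screening kit run per its supplied protocol and reagents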
row,Binder,binding vs positive control [%]
1,FVYDHVFAE [cdr2 171-179 FVYDHVFAE],> 30
2,LKSSGQGRR [cdr2 136-144 LKSSGQGRR],> 30
3,NIDHLQSQV [cdr2 125-133 NIDHLQSQV],> 30
4,VTMEEEYGL [cdr2 217-225 VTMEEEYGL],> 30
5,TMEEEYGLV [cdr2 218-226 TMEEEYGLV],> 30
6,HLQSQVEEL [cdr2 128-136 HLQSQVEEL],> 30
7,QLAAELGKT [cdr2 29-37 QLAAELGKT],> 30
8,MLQAQLSLE [cdr2 204-212 MLQAQLSLE],> 30
9,KVYEQLDVT [cdr2 82-90 KVYEQLDVT],> 30
10,CLQTNIDHL [cdr2 121-129 CLQTNIDHL],> 30
11,SQVEELKSS [cdr2 131-139 SQVEELKSS],> 30
12,QAQLSLERQ [cdr2 206-214 QAQLSLERQ],> 30
13,LSLTETIEC [cdr2 113-121 LSLTETIEC],> 30

# Results, then the binder that gave them:
row,binding vs positive control [%],Binder
1,> 30,LASVNPEPV [cdr2 405-413 LASVNPEPV]
2,> 30,ASGWELASV [cdr2 400-408 ASGWELASV]
3,> 30,DSLSHKAVQ [cdr2 372-380 DSLSHKAVQ]
4,> 30,LGATGAYRA [cdr2 237-245 LGATGAYRA]
5,> 30,EMFLTVPES [cdr2 293-301 EMFLTVPES]
6,> 30,TILSSLAGS (Position printed as 313-221) [cdr2 313-221 TILSSLAGS]
7,> 30,LVPDSLYVP [cdr2 274-282 LVPDSLYVP]
8,> 30,AAAKDLTGV [cdr2 384-392 AAAKDLTGV]
9,> 30,SLSHKAVQT [cdr2 373-381 SLSHKAVQT]
10,> 30,GVNAQSEPV [cdr2 391-399 GVNAQSEPV]
11,> 30,SLLEEMFLT [cdr2 289-297 SLLEEMFLT]
12,> 30,QSLLEEMFL [cdr2 288-296 QSLLEEMFL]
13,> 30,RGISLLHEV [cdr2 341-349 RGISLLHEV]
14,> 30,KLVPDSLYV [cdr2 273-281 KLVPDSLYV]

# Target: HLA-A*2402 (human)
# Assay: iTopia affinity
row,Binder,ED50 [µM]
1,EQLQEIEYL [cdr2 58-66 EQLQEIEYL],3.4
2,MYTTNQEQL [cdr2 52-60 MYTTNQEQL],0.54
3,EYLTKQVEL [cdr2 64-72 EYLTKQVEL],0.65

# Next, values leading:
row,ED50 [µM],Binder
1,1.5,YKALFKEIF [cdr2 422-430 YKALFKEIF]
2,1.4,PFVNGVEKL [cdr2 266-274 PFVNGVEKL]
3,10,VKQRGISLL [cdr2 338-346 VKQRGISLL]
4,0.44,EYKALFKEI [cdr2 421-429 EYKALFKEI]
5,0.075,LFKEIFSCI [cdr2 425-433 LFKEIFSCI]
6,0.49,PFKEPSQSL [cdr2 282-290 PFKEPSQSL]
